We go through one substance from publication PMC11109380.

For test [1], the target named is human CD3ε cytoplasmic tail fused to GST, Y39/50E (human). Description: pull-down; GST-CD3ε cytoplasmic tail variants on glutathione sepharose beads, incubated with Jurkat T cell lysate (lysis buffer with 0.3% Brij96V, 20 mM Tris-HCl pH 8, 137 mM NaCl) overnight at 4°C; immunoblot, signals normalised to GST.
The target of test [2] is human CD3ε cytoplasmic tail fused to GST, Y50E (human). Described as above.
Test [3] addresses human CD3ε Y50E-FLAG expressed in JK εKO cells (human). The experiment in a line: proximity ligation; in situ PLA (Duolink) with goat anti-CD3ε and mouse anti-LCK in JK εKO cells expressing hCD3ε variants; unstimulated or stimulated with 5 μg/ml anti-CD3ε (OKT3) for 5 min at 37°C; dots per cell normalised to the stimulated WT.

Some results are limits rather than exact numbers.

In turn, “Src family kinase LCK (from UniProt P06239 1-509) (enzyme)” returned a reduction of binding compared to CD3ε WT in test [1] of 80%. This substance also had a reduction of binding compared to CD3ε WT in test [2] of 80%. Further, in test [3], the reduction of TCR-LCK proximity compared to WT is 60% and the residual binding was < 30%.
